Results taken from patent US20210079071A1.

How the values were obtained:
[1] = molecular target: GMA-2105 murine anti-staphylocoagulase monoclonal antibody
[2] = molecular target: T1, Staphylocoagulase peptide SC(1-10), …, unconjugated (Staphylococcus aureus); assay: ELISA: purified GMA-2105 on unconjugated …, A490
[3] = molecular target: Staphylocoagulase peptide SC(1-10) conjugated to ovalbumin (Staphylococcus aureus); assay: ELISA: purified GMA-2105 on SC peptide-ovalbumin conjugate, A490
[4] = molecular target: T1, Staphylocoagulase peptide SC(1-10), …, …; assay: ELISA: GMA-2105 F(ab) on wells coated with …, A490

IVTKDYSKES (modifications not checked) [Staphylocoagulase peptide SC(1-10), …, unconjugated]
IC50 (read off the curve) [1]: 2 nM

B1: GMA-2105 murine anti-staphylocoagulase monoclonal antibody (antibody, V domains shown)
VH: EVKLEESGGGLVQPGGSMKLSCAASGFTFSDAWMDWVRQSPEKGLEWVAEIRTKANNHATYYAESVKGRFTISRDDSKSSVYLQMNSLRAEDTGIYYCTNVYYGNNDVKDYWGQGTSVTVSPAS
VL: DIVMTQSQKFMSTSVGDRVSVTCKASQNVDIYVAWYQQKPGQSPKALIYSASYRFSGVPDRFTGSGSGTDFTLSISNVQSEDLAEYFCQQYNNYPYTFGGGTKLEIKRADAAPTVSIFPPSSEGRI
EC50 (read off the curve) [2]: 0.05 µg/mL
EC50 (read off the curve) [3]: 0.03 µg/mL

B2: GMA-2105 F(ab) fragment (Fab, V domains shown)
VH: B1 VH
VL: B1 VL
EC50 (read off the curve) [4]: 0.1 µg/mL
